Reference: paper PMC3961392
pKd: −log10 of the molar value.

Key:
A3G NPM ins194_195NPM = A3G NPM ins194_195NPM (UniProt Q9HC16); experiment: fluorescence anisotropy; conditions: RT buffer: 50 mM Tris pH 7.4, 40 mM KCl, 10 mM MgCl2, 1 mM DTT; 10 nM F-labeled DNA; 21 C
A3G = A3G (Homo sapiens?) (UniProt Q9HC16); experiment: fluorescence anisotropy; conditions: RT buffer: 50 mM Tris pH 7.4, 40 mM KCl, 10 mM MgCl2, 1 mM DTT; 10 nM F-labeled DNA; 21 C
Chain of A3G (Homo sapiens?) (Q9HC16 whole entry): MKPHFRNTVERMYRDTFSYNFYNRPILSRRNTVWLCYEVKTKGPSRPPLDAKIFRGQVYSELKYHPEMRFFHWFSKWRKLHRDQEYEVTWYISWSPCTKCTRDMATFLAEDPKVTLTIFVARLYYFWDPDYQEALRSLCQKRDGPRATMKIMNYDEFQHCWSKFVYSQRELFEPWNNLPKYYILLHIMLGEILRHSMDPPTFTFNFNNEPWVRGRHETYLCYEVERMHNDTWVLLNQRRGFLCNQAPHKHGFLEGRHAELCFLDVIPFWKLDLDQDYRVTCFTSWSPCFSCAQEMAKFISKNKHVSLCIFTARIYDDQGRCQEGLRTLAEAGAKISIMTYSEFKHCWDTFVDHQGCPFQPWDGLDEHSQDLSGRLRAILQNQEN

Chain of A3G NPM ins194_195NPM (Q9HC16 whole entry): as above

“GAATATATGTTGAGACCCAAAGTAATGAGAGATTGATTAGATGAGTGTAATGTGATATATGTGTATGAAAGATATAAGACCCAAAGAGTAAAGTTGTTAATGTGTGTAGATATGTTAA [A3G - 63 (118 nt, CCC)]” was tested, and the pKd (A3G NPM ins194_195NPM) was 7.25 and the pKd (A3G) was 6.89.
